Patent US20070072239A1 (Pfizer, published 2007)

T1: Wnt3 (human, UniProt P56703 22-355 at identity 1.00), limits assumed)
T1 chain: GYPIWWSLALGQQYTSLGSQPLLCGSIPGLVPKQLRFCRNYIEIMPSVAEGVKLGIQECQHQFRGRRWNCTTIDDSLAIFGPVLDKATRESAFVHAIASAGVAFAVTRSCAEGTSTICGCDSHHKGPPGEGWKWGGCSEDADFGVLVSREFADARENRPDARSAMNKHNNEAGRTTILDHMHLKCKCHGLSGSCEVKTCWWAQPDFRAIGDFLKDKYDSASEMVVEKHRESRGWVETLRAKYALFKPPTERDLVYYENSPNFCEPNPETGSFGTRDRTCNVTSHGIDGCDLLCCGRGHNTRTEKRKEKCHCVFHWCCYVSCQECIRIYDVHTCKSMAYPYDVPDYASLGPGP


Molecular target: T1, Wnt3
Assay: cell-based or functional assay

Binder	loss of Wnt3 antagonist activity relative to SFRP-1 (TCF-Luciferase reporter)
SFRP-1/SFRP-2 (1-248/238-295) chimera (receptor) SEYDYVSFQSDIGPYQSGRFYTKPPQCVDIPADLRLCHNVGYKKMVLPNLLEHETMAEVKQQASSWVPLLNKNCHAGTQVFLCSLFAPVCLDRPIYPCRWLCEAVRDSCEPVMQFFGFYWPEMLKCDKFPEGDVCIAMTPPNATEASKPQGTTVCPPCDNELKSEAIIEHLCASEFALRMKIKEVKKENGDKKIVPKKKKPLKLGPIKKKDLKKLVLWLKDSLQCTCEEMNDINAPYLVMGQKQGGELVITSVKRWQKGQREFKRISRSIRKLQC	~40 % loss of activity
SFRP-1/SFRP-2(1-226)/(214-295) chimera (receptor) SEYDYVSFQSDIGPYQSGRFYTKPPQCVDIPADLRLCHNVGYKKMVLPNLLEHETMAEVKQQASSWVPLLNKNCHAGTQVFLCSLFAPVCLDRPIYPCRWLCEAVRDSCEPVMQFFGFYWPEMLKCDKFPEGDVCIAMTPPNATEASKPQGTTVCPPCDNELKSEAIIEHLCASEFALRMKIKEVKKENGDKKIVLETKSKTIYKLNGVSERDLKKSVLWLKDSLQCTCEEMNDINAPYLVMGQKQGGELVITSVKRWQKGQREFKRISRSIRKLQC	~40 % loss of activity
